Laboratory results reported in patent US20240269194A1 (CITY OF HOPE, published 2024).

Biological target: [^68Ga]-DO3A-VS-Cys40-labeled Exendin-4 (UniProt P26349 48-86)
Experiment: saturation binding of the radiolabeled probe on INS-1 cells

B1: GLP-1R expressed by INS-1 cells (receptor)
chain: GPRPQGATVSLSETVQKWREYRHQCQRFLTEAPLLATGLFCNRTFDDYACWPDGPPGSFVNVSCPWYLPWASSVLQGHVYRFCTAEGIWLHKDNSSLPWRDLSECEESKQGERNSPEEQLLSLYIIYTVGYALSFSALVIASAILVSFRHLHCTRNYIHLNLFASFILRALSVFIKDAALKWMYSTAAQQHQWDGLLSYQDSLGCRLVFLLMQYCVAANYYWLLVEGVYLYTLLAFSVFSEQRIFKLYLSIGWGVPLLFVIPWGIVKYLYEDEGCWTRNSNMNYWLIIRLPILFAIGVNFLVFIRVICIVIAKLKANLMCKTDIKCRLAKSTLTLIPLLGTHEVIFAFVMDEHARGTLRFVKLFTELSFTSFQGFMVAVLYCFVNNEVQMEFRKSWERWRLERLNIQRDSSMKPLKCPTSSVSSGATVGSSVYAATCQNSCS
notes: whole, on cells; Endogenous receptor on INS-1 cells and INS-1 tumors in mice; also called GLP-R1
  Kd: 8.6 nM
